Columns and labels:
KDM2A(2–685) (human) = KDM2A(2–685) (human) (UniProt Q9Y2K7); assay: FRET or BRET
[1] = molecular target: H2AK119-biotinylated 185 bp nucleosome; assay: FRET or BRET

| Substance | ratio of IC50 (147 bp over 185 bp nucleosome as competitor) (KDM2A(2–685) (human)) [fold] | fold reduction of binding affinity against wild-type KDM2A [1] [fold] |
| --- | --- | --- |
| unmodified wild-type 147 bp nucleosome (complex) | 10 |  |
| KDM2A(2–685) K99E/R105E/R128E/R152E (from UniProt Q9Y2K7 2-685) (domain or fragment) |  | 20 |
| KDM2A(2–685) R152E (from UniProt Q9Y2K7 2-685) (domain or fragment) |  | 4 |
